Usually EC50 stands for the midpoint of the concentration-response curve. One may read the IC50 as the point on the concentration scale where inhibition reaches its midpoint. The low end stands for inhibition by little substance, the high end for a need for much substance.

Consider 3 molecules from patent US20180346580A1 (INTERVET, published 2018).

Where “and” joins values, the source holds several entries; their conditions need not be identical. Equal values may be shown once.

Sequences and labels used below:
B1: canine IL-4 (R&D system, cat #754-CL/CF), biotinylated (ligand, UniProt O77762 25-132, looked up)
chain: HNFNITIKEIIKMLNILTARNDSCMELTVKDVFTAPKNTSDKEIFCRAATVLRQIYTHNCSNRYLRGLYRNLSSMANKTCSMNEIKKSTLKDFLERLKVIMQKKYYRH
modifications: biotinylated with Lightning-Link Biotin Conjugation Kit Type A
notes: Purchased protein; also called canine interleukin-4; biotinylated canine IL-4
B3: canine IL-4 receptor alpha chain (full length) expressed on the surface of CHO DG44 cells (receptor)
chain: VKVLHEPSCFSDYISTSVCQWKMDHPTNCSAELRLSYQLDFMGSENHTCVPENREDSVCVCSMPIDDAVEADVYQLDLWAGQQLLWSGSFQPSKHVKPRTPGNLTVHPNISHTWLLMWTNPYPTENHLHSELTYMVNVSNDNDPEDFKVYNVTYMGPTLRLAASTLKSGASYSARVRAWAQTYNSTWSDWSPSTTWLNYYEPWEQHLPLGVSISCLVILAICLSCYFSIIKIKKGWWDQIPNPAHSPLVAIVIQDSQVSLWGKRSRGQEPAKCPHWKTCLTKLLPCLLEHGLGREEESPKTAKNGPLQGPGKPAWCPVEVSKTILWPESISVVQCVELSEAPVDNEEEEEVEEDKRSLCPSLEGSGGSFQEGREGIVARLTESLFLDLLGGENGGFCPQGLEESCLPPPSGSVGAQMPWAQFPRAGPRAAPEGPEQPRRPESALQASPTQSAGSSAFPEPPPVVTDNPAYRSFGSFLGQSSDPGDGDSDPELADRPGEADPGIPSAPQPPEPPAALQPEPESWEQILRQSVLQHRAAPAPGPGPGSGYREFTCAVKQGSAPDAGGPGFGPSGEAGYKAFCSLLPGGATCPGTSGGEAGSGEGGYKPFQSLTPGCPGAPTPVPVPLFTFGLDTEPPGSPQDSLGAGSSPEHLGVEPAGKEEDSRKTLLAPEQATDPLRDDLASSIVYSALTCHLCGHLKQWHDQEERGKAHIVPSPCCGCCCGDRSSLLLSPLRAPNVLPGGVLLEASLSPASLVPSGVSKEGKSSPFSQPASSSAQSSSQTPKKLAVLSTEPTCMSAS
notes: also called cIL-4Rα; CHO-cIL-4Rα

Test [1] concerns the target B3. The experiment in a line: flow cytometry, cell-based CHO-cIL-4Rα binding assay.
In test [2] the target is B3. The experiment in a line: flow cytometry, binding to CHO-cIL-4Rα cells.
Test [3] deals with B3. The experiment in a line: flow cytometry ligand blockade on CHO-cIL-4Rα cells; competitor biotinylated canine IL-4 at 0.32 µg/mL; one of two separate studies. How it is done:
Procedure: [0247] 1. CHO-DH44-canIL-4Rα cell grown to 2-4 ×10⁶ cells/mL with more than 96% viability. [0248] 2. The cells were spun down, the supernatant discarded, and the cells were suspended in FACS buffer to 2×10⁷ cells/mL. [0249] 3. The cells were distributed into a U-shape 96-well plate, 50 μl each well. [0250] 4. The anti-canine IL-4Rα mAbs in FACS buffer was diluted three-fold on a 96-well plate from top down to bottom well, starting at 50 μg/mL. [0251] 5. 50 μl of each diluted Ab was transferred into the cell plate and then incubated on ice for 30 min. [0252] 6. The cells were washed twice with FACS buffer. [0253] 7. The cells were resuspended into 100 μl of biotinylated canine IL-4 at 0.32 μg/mL in FACS buffer and incubated on ice for 30 min. [0254] 8. The cells were washed twice with FACS buffer. [0255] 9. The cells were responded into 100 μl of R-phycoerythin conjugated Streptavidin (1:1000 dilution) in FACS buffer and incubated on ice for 30 min. [0256] 10. The cells were washed twice with FACS buffer. [0257] 11. The cells were brought up to 300 μl in FACS buffer. [0258] 12. 10,000 cells were read for each sample by BD Accuri-C6. [0259] 13. The resulting readout were analyzed by FlowJo to get the mean fluorescent intensity (MFI).
A general note: Flow cytometry measures light scatter and fluorescence of single cells or particles in a stream.

For test [4], the target named is B1. The experiment in a line: FACS, biotinylated canine IL-4 on CHO cells expressing canine IL-4Rα.

In turn, B1 showed an EC50 in test [1] of 25 nM.

B2: mouse anti-canine IL-4Rα monoclonal antibody 11H2 (antibody, V domains shown)
VH: DVKLVESGGGLVQPGGSLKLSCAASGFTFSDYYMYWVRQTPEKRLEWVAYVSSGGGSIYYPDTVKGRFTISRDNAKNTLYLQMSRLKSEDTAMYYCARHGSPFGSSRGAWFAYWGQGTLVTVSA
VL: DIQMTQSPASLSASVGETVTITCRASENIYSYLAWYQQKQGKSPQLLVYNAKTLAEGVPSRFSGSGSGTQFSLKINSLQPEDFGNYYCQHYDGFPFTFGGGTKLELK
notes: Hybridoma-derived mouse antibody; also called mAb 11H2
In the case of B2, in test [2], the EC50 is 1.2 nM. In addition, in test [3], the IC50 is 1.7 nM and 1 nM.

For B3, the binding result in test [4] is on record as “binds”.
